To fix the notation:
B1: A94S (designed binder)
chain: MTLQELLREEALRRAEAEAFRYALELLAEKFPEQKEYLLDLAEEIESQIRSLSGVDVEDVRKFLDKEWAWVKELLAEHPAELAEVEAARAARLSELRAEVEAKVAA
B2: L82T (designed binder)
chain: B1 chain with L82T, S94A
B3: L26R (designed binder)
chain: B1 chain with L26R, S94A
B4: Q4K (designed binder)
chain: B1 chain with Q4K, S94A
B5: P32G (designed binder)
chain: B1 chain with P32G, S94A
B6: E33F (designed binder)
chain: B1 chain with E33F, S94A
B7: A98R (designed binder)
chain: B1 chain with S94A, A98R
B8: S47T (designed binder)
chain: B1 chain with S47T, S94A
B9: P32H (designed binder)
chain: B1 chain with P32H, S94A
B10: L75T (designed binder)
chain: B1 chain with L75T, S94A
B11: A91D (designed binder)
chain: B1 chain with A91D, S94A
B12: E36R (designed binder)
chain: B1 chain with E36R, S94A
B13: V100H (designed binder)
chain: B1 chain with S94A, V100H
B14: E36T (designed binder)
chain: B1 chain with E36T, S94A
B15: V85I (designed binder)
chain: B1 chain with V85I, S94A
B16: D56T (designed binder)
chain: B1 chain with D56T, S94A
B17: V85T (designed binder)
chain: B1 chain with V85T, S94A
B18: K62W (designed binder)
chain: B1 chain with K62W, S94A
B19: D65E (designed binder)
chain: B1 chain with D65E, S94A
B20: S51D (designed binder)
chain: B1 chain with S51D, S94A
B21: R21D (designed binder)
chain: B1 chain with R21D, S94A
B22: K72H (designed binder)
chain: B1 chain with K72H, S94A
B23: K103I (designed binder)
chain: B1 chain with S94A, K103I
B24: A105S (designed binder)
chain: B1 chain with S94A, A105S
B25: V100C (designed binder)
chain: B1 chain with S94A, V100C
B26: V60P (designed binder)
chain: B1 chain with V60P, S94A
B27: L3E (designed binder)
chain: B1 chain with L3E, S94A
B28: K72P (designed binder)
chain: B1 chain with K72P, S94A
B29: R21M (designed binder)
chain: B1 chain with R21M, S94A
B30: Q4M (designed binder)
chain: B1 chain with Q4M, S94A
B31: A80M (designed binder)
chain: B1 chain with A80M, S94A
B32: K30S (designed binder)
chain: B1 chain with K30S, S94A
B33: L93A (designed binder)
chain: B1 chain with L93A, S94A
B34: A28G (designed binder)
chain: B1 chain with A28G, S94A
B35: R8N (designed binder)
chain: B1 chain with R8N, S94A
B36: V71P (designed binder)
chain: B1 chain with V71P, S94A
B37: K66P (designed binder)
chain: B1 chain with K66P, S94A
B38: E9N (designed binder)
chain: B1 chain with E9N, S94A
B39: K66V (designed binder)
chain: B1 chain with K66V, S94A
B40: E5I (designed binder)
chain: B1 chain with E5I, S94A
B41: L3N (designed binder)
chain: B1 chain with L3N, S94A
B42: L26Q (designed binder)
chain: B1 chain with L26Q, S94A
B43: K35H (designed binder)
chain: B1 chain with K35H, S94A
B44: E58S (designed binder)
chain: B1 chain with E58S, S94A
B45: E58W (designed binder)
chain: B1 chain with E58W, S94A
B46: W68V (designed binder)
chain: B1 chain with W68V, S94A
B47: E86A (designed binder)
chain: B1 chain with E86A, S94A
B48: Q4T (designed binder)
chain: B1 chain with Q4T, S94A
B49: E99T (designed binder)
chain: B1 chain with S94A, E99T
B50: Y37W (designed binder)
chain: B1 chain with Y37W, S94A
B51: E18R (designed binder)
chain: B1 chain with E18R, S94A
B52: F20N (designed binder)
chain: B1 chain with F20N, S94A
B53: A94Q (designed binder)
chain: B1 chain with S94Q
B54: A90M (designed binder)
chain: B1 chain with A90M, S94A
B55: L24E (designed binder)
chain: B1 chain with L24E, S94A

Numbering of substitutions follows the chain as printed. Numbers in names are those of the source.

This experiment deals with T1, TNFR1 (Homo sapiens, UniProt P19438).
T1 chain: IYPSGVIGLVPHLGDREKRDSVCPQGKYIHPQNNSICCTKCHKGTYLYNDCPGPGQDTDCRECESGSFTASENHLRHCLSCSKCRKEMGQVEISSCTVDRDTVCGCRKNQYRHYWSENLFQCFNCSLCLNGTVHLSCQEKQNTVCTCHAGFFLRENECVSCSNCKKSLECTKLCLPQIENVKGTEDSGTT
As to the kind of experiment: yeast display SC50.
Consider B1, for which the “apparent Kd (screen)” value was determined as 0.593 nM.
Turning to B2, the “apparent Kd (screen)” value amounted to 0.653 nM.
In the case of B3 it was 0.446 nM; in that of B4, 0.49 nM.
In the case of B5 it was 0.593 nM; in that of B6, 0.956 nM.
The value for B7 was 0.653 nM; that for B8 was 0.653 nM; that for B9 was 0.79 nM.
As to B10, the “apparent Kd (screen)” value came to 0.869 nM.
For the molecule B11, the “apparent Kd (screen)” value came out at 0.49 nM.
The value for B12 was 0.653 nM; that for B13 was 0.869 nM; that for B14 was 2.25 nM.
In the case of B15 it was 0.593 nM; in that of B16, 2.48 nM.
In the case of B17 it was 0.446 nM; in that of B18, 0.593 nM.
Regarding B19, the “apparent Kd (screen)” value came out at 0.446 nM.
The value for B20 was 2.05 nM; that for B21 was 0.539 nM; that for B22 was 0.49 nM.
In the case of B23 it was 1.05 nM; in that of B24, 0.79 nM; in that of B25, 0.446 nM.
B26: the “apparent Kd (screen)” value was 12.5 nM.
The value for B27 was 18.3 nM; that for B28 was 11.4 nM.
The value for B29 was 0.956 nM.
Regarding B30, the “apparent Kd (screen)” value turned out to be 0.49 nM.
The value for B31 was 0.49 nM.
As to B32, the “apparent Kd (screen)” value was 0.718 nM.
In the case of B33 it was 1.4 nM.
The value for B34 was 0.446 nM; that for B35 was 0.539 nM; that for B36 was 12.5 nM.
For B37, the “apparent Kd (screen)” value turned out to be 3.99 nM.
For the molecule B38, the “apparent Kd (screen)” value was 0.593 nM.
Take B39: the “apparent Kd (screen)” value amounted to 0.653 nM.
The value for B40 was 0.49 nM; that for B41 was 24.4 nM; that for B42 was 0.593 nM.
The value for B43 was 0.446 nM; that for B44 was 0.593 nM; that for B45 was 0.653 nM.
In the case of B46 it was 4.39 nM; in that of B47, 0.956 nM.
On to B48, for which the “apparent Kd (screen)” value was 0.593 nM.
B49: the “apparent Kd (screen)” value stood at 0.79 nM.
Take B50: the “apparent Kd (screen)” value came to 3.3 nM.
As for B51, the “apparent Kd (screen)” value is 0.718 nM.
With B52, the “apparent Kd (screen)” value is 0.446 nM.
For the molecule B53, the “apparent Kd (screen)” value is 0.79 nM.
In the case of B54 it was 0.539 nM; in that of B55, 0.869 nM.

These data come from paper PMC12416549 (2024).
